Test results from US20250368754A1 (KANAPH THERAPEUTICS, published 2025).

T1: recombinant human herpes virus entry mediator (HVEM) (human, UniProt Q92956 39-202)
T1 construct: neither construct is described; also called human HVEM; recombinant human HVEM protein (R&D systems)
T1 sequence (looked up): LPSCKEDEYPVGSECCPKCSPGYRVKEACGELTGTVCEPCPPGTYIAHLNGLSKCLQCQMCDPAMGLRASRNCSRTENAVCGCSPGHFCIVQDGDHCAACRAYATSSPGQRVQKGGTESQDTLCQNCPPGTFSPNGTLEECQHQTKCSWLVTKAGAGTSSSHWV

T2: human DcR3 (human, UniProt O95407 30-300)
T2 construct: also called LIGHT receptor DcR3
T2 sequence (looked up): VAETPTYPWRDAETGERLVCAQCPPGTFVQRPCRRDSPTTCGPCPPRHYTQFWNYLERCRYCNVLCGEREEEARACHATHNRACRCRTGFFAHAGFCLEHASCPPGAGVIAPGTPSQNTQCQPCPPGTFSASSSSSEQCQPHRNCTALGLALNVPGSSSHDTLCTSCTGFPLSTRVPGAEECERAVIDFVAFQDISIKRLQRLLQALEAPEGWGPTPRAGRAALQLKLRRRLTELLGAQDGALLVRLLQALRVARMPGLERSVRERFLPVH


Legend:
human LTβR on A375 cells [1] = target: T3, human LTβR on A375 cells (human, UniProt P36941 31-435); test: flow cytometry on A375 cells, serial dilution from 500 nM, anti-human IgG detection
T3 construct: whole, on cells; Endogenous receptor of a human cell line; also called LTβR expressing A375 cells; LTβR expressing cell line
T3 sequence (P36941 31-435): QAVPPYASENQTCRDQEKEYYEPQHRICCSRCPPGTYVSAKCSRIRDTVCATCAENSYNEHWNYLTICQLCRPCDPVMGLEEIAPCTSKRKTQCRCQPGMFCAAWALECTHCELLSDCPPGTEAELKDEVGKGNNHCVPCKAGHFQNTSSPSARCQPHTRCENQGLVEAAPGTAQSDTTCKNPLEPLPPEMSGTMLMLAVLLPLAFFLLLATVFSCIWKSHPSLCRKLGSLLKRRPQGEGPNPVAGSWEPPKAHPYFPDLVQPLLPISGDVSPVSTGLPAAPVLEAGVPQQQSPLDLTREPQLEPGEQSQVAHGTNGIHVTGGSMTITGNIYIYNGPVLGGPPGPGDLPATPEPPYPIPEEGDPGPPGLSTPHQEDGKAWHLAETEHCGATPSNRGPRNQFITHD
Procedure: Specifically, the A375 cell line was prepared by suspending in a FACS buffer solution at 1×10⁵ cells/100 μL, and treated with 100 μL each of T3.01, T3.07, T3.04, and T3.18 prepared by suspending at 500 nM and diluting by serial dilution. The cells were washed twice with a FACS buffer solution. The cells were stained with an anti-human IgG antibody (Biolegend). The expression ratio of the stained cells was measured using BD LSR and analyzed using FlowJo software.

human LTβR on A375 cells [2] = target: T3, human LTβR on A375 cells; test: cell-based or functional assay
[3] = target: T1, recombinant human herpes virus entry …; test: SPR, human HVEM immobilised on CM5, fusion protein as analyte, 1:1 binding model
Procedure: (§1) Specifically, the surface of the CM5 chip was activated with a 1:1 mixture of […], and 5 to 6 μg/mL of human HVEM was immobilized for 60 seconds at a rate of 10 μL/min. The remaining active ester groups were blocked with 1 M ethanolamine. T3.01, T3.07, T3.09, T3.14, and T3.18 were each diluted to 100 nM in 1×HBS-EP+buffer solution and diluted by serial dilution. The diluted fusion proteins were reacted at a rate of 30 μL/min. The association and dissociation times were 180 seconds and 400 seconds, respectively. After the dissociation step, stabilization was performed for 60 seconds, and then the regeneration step was performed for 30 seconds with a 10 mM glycine pH 1.5 solution at a rate of 30 μL/min.

human DcR3 = target: T2, human DcR3; test: SPR, human DcR3 immobilised on CM5, fusion protein as analyte, 1:1 binding model
Procedure: as §1, with “DcR3” for “HVEM”, “50 nM or 200” for “100”

[4] = target: T1, recombinant human herpes virus entry …; test: SPR, human HVEM immobilised on the chip (title: PRO096; 6ug/ml human HVEM pH5.5), T3.14 as analyte 0.78125-100 nM
Procedure: as §1

Row | Binder | percent of cells bound (human LTβR on A375 cells [1]) [%] | IL-8 secretion of A375 cells, EC50 (FIG. 15a) (human LTβR on A375 cells [2]) [nM] | IL-8 secretion of A375 cells, EC50 (FIG. 15b) (human LTβR on A375 cells [2]) [nM] | Kd [3] [nM] | koff [3] [s⁻¹] | kon [3] [M⁻¹ s⁻¹] | Kd (human DcR3) [nM] | koff (human DcR3) [s⁻¹] | kon (human DcR3) [M⁻¹ s⁻¹] | binding result [4]
1 | T3.01 (anti-hu FAP/hu scLIGHT3, hu IgG1 DANG) (bispecific antibody, Knob-into-hole heterodimer: one anti-FAP Fab arm and one single-chain human LIGHT (91-240) homotrimer arm) heavy: QVQLVQSGAEVKKPGASVKVSCKTSRYTFTEYTIHWVRQAPGQRLEWIGGINPNNGIPNYNQKFKGRVTITVDTSASTAYMELSSLRSEDTAVYYCARRRIAYGYDEGHAMDYWGQGTLVTVSSASTKGPSVFPLAPSSKSTSGGTAALGCLVKDYFPEPVTVSWNSGALTSGVHTFPAVLQSSGLYSLSSVVTVPSSSLGTQTYICNVNHKPSNTKVDKKVEPKSCDKTHTCPPCPAPELLGGPSVFLFPPKPKDTLMISRTPEVTCVVVAVSHEDPEVKFNWYVDGVEVHNAKTKPREEQYGSTYRVVSVLTVLHQDWLNGKEYKCKVSNKALPAPIEKTISKAKGQPREPQVYTLPPSRDELTKNQVSLWCLVKGFYPSDIAVEWESNGQPENNYKTTPPVLDSDGSFFLYSKLTVDKSRWQQGNVFSCSVMHEALHNHYTQKSLSLSPGK light: not shown not shown | ≥ 96 | 0.0368 | 0.0469 | 4.24 | 0.00119 | 281000 | 0.357 | 0.000236 | 662000 | –
2 | T3.14 (anti-hu FAP/hu scLIGHT-LTb2, hu IgG1 DANG) (bispecific antibody, Knob-into-hole; single-chain heterotrimer of one human LIGHT and two human lymphotoxin beta (87-243)) heavy: QVQLVQSGAEVKKPGASVKVSCKTSRYTFTEYTIHWVRQAPGQRLEWIGGINPNNGIPNYNQKFKGRVTITVDTSASTAYMELSSLRSEDTAVYYCARRRIAYGYDEGHAMDYWGQGTLVTVSSASTKGPSVFPLAPSSKSTSGGTAALGCLVKDYFPEPVTVSWNSGALTSGVHTFPAVLQSSGLYSLSSVVTVPSSSLGTQTYICNVNHKPSNTKVDKKVEPKSCDKTHTCPPCPAPELLGGPSVFLFPPKPKDTLMISRTPEVTCVVVAVSHEDPEVKFNWYVDGVEVHNAKTKPREEQYGSTYRVVSVLTVLHQDWLNGKEYKCKVSNKALPAPIEKTISKAKGQPREPQVYTLPPSRDELTKNQVSLWCLVKGFYPSDIAVEWESNGQPENNYKTTPPVLDSDGSFFLYSKLTVDKSRWQQGNVFSCSVMHEALHNHYTQKSLSLSPGK light: not shown not shown | – | 0.0558 | – | – | – | – | 9.72 | 0.00198 | 204000 | no binding (tested: 100 nM)
